The source of these data is patent publication US20220153832A1 (PIONYR IMMUNOTHERAPEUTICS, published 2022).

One may read the Kd as the constant that tells how readily two partners part at equilibrium. Usually koff stands for the first-order rate constant of dissociation. By EC50 is commonly meant the midpoint of the concentration-response curve. A low value points to a more potent agent.

Test [1] concerns the target T1, N-terminally polyhistidine tagged human MARCO ECD (147-520), recombinant (human, UniProt Q9UEW3 147-520).
T1 construct: also called PI-RG-3000; recombinant human MARCO; not shown: N-terminal polyhistidine tag
T1 sequence: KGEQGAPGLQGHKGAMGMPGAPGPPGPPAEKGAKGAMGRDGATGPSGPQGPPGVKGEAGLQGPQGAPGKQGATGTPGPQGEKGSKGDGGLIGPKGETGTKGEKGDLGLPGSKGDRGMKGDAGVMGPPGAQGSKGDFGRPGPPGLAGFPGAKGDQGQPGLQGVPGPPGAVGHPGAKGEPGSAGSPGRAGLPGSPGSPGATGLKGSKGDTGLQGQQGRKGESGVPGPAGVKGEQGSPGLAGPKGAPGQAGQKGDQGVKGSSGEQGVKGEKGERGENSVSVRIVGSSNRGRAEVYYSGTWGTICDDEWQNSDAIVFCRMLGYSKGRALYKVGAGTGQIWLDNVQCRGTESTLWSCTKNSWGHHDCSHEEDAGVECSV
In words: Biacore, recombinant human MARCO; control sample. A general note: Surface plasmon resonance follows binding to a sensor surface in real time, without labels.

In test [2] the target is T1, N-terminally polyhistidine tagged human …. In words: Biacore; isomerization/fragmentation stress sample.
Test [3] has the same target. In words: Biacore (SPR), recombinant human MARCO. An outline of the steps:
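Antibodies were captured by anti-mouse Fc mAb amine-coupled to a CM4 chip (4500 RU target). Running buffer was 10 mM HEPES pH 7.4, 150 mM NaCl, 3 mM EDTA, 0.05% surfactant P20. Injections were at 0.625–10 nM with 90 s association and 600 s dissociation, and constants were fitted in BIAevaluation 3.1.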

In test [4] the target is T2, N-terminal his-tagged mouse MARCO protein, recombinant (mouse, UniProt Q60754 150-518).
T2 construct: The entry holds the His tag, the CLD and the SRCR domain; also called mMARCO (RG3016); PI-RG-3016
T2 sequence: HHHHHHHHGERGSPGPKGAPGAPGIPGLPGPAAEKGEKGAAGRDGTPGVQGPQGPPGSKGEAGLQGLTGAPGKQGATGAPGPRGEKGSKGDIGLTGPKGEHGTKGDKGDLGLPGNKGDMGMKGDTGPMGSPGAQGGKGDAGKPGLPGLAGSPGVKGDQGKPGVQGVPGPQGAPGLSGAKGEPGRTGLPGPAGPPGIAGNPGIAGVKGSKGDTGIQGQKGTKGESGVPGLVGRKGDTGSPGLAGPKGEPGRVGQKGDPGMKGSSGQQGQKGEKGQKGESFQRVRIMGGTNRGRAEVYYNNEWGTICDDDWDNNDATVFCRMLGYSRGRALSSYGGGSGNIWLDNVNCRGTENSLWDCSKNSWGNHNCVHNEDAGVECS
In words: Biacore.

In test [5] the target is T3, Cynomolgus MARCO, full length, on cells (cynomolgus, UniProt A0A2K5X0Z2 1-519).
T3 construct: whole, on cells; also called cyno MARCO; CyMARCO
T3 sequence: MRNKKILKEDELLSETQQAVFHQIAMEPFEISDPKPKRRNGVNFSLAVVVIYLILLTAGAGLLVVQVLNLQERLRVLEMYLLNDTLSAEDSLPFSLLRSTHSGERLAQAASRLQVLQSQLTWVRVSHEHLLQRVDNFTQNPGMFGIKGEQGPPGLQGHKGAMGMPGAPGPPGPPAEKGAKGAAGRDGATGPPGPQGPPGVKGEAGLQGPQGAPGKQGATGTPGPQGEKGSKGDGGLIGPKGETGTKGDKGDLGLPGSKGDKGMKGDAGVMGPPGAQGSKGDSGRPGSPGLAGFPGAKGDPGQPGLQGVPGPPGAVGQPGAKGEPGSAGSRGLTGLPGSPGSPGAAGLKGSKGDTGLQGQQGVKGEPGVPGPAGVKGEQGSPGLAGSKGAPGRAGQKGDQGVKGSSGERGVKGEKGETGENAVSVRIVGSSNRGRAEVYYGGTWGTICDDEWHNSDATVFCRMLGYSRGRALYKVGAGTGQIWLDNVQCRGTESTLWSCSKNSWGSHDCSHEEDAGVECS
In words: flow cytometry, 293T (CyMARCO). The method, then:
Supernatants were removed and cell pellets were resuspended in Ca²⁺+ and Mg²⁺+ Dulbecco's phosphate-buffered saline (D-PBS) at 1×10⁶ cells/ml. 100,000 cells/well were plated onto U-bottom 96-well plates for staining and all centrifugation steps were performed at 1500 rpm at 4° C. for 5 min and samples were kept protected from light throughout the protocol. Cells were pelleted and resuspended in 100 μl of Zombie NIR viability dye (BioLegend) prepared by diluting Zombie NIR dimethyl sulfoxide (DMSO) stock 1000-fold in D-PBS. […] Flow cytometry data were analyzed using FlowJo software (version 10.6.1) and data were processed and further analyzed in Microsoft Excel and GraphPad Prism software (version 8). Half-maximal effective concentrations (EC₅₀) were calculated based on geometric mean fluorescence intensities (gMFI). In case when the plates were not able to be analyzed on the cytometer, cells were pelleted after the washes and fixed in 100 μl of 2% paraformaldehyde (PFA), prepared by diluting the 16% (w/v) stock (Thermo Fisher) in DPBS, for 15 min at RT. […]
Background: Flow cytometry measures light scatter and fluorescence of single cells or particles in a stream.

B1: PI-3015-AB (antibody, human IgG1, kappa)
heavy: not shown
light: DIQMTQSPSSLSASVGDRVTITCRASEGISNDLAWYQQKPGKAPKLLIYAASRLQSGVPSRFSGSGSGTDYTLTISSMQPEDFATYYCQQSYKYPLTFGQGTKLEIKRTVAAPSVFIFPPSDEQLKSGTASVVCLLNNFYPREAKVQWKVDNALQSGNSQESVTEQDSKDSTYSLSSTLTLSKADYEKHKVYACEVTHQGLSSPVTKSFNRGEC
Consider B1, for which the Kd in test [1] came to 0.97 nM; in test [2], 1.24 nM; in test [3], 0.51 nM. The koff in test [3] was found to be 0.000294 s⁻¹.

B2: PI-HX-3061 (antibody, rat IgG2a)
heavy: EVQLVESGGGLVQPGSSLKLSCVASKFTFSNYGMNWIRQAPKKGLEWIALIYYNSNNKYYADSVKGRFTISRDNSKNTLYLEMNSLRSEDTAMYYCAKSLTGGSDYFDSWGQGVMVTVSSAETTAPSVYPLAPGTALKSNSMVTLGCLVKGYFPEPVTVTWNSGALSSGVHTFPAVLQSGLYTLTSSVTVPSSTWPSQTVTCNVAHPASSTKVDKKIVPRNCGGDCKPCICTGSEVSSVFIFPPKPKDVLTITLTPKVTCVVVDISQDDPEVHFSWFVDDVEVHTAQTRPPEEQFNSTFRSVSELPILHQDWLNGRTFRCKVTSAAFPSPIEKTISKPEGRTQVPHVYTMSPTKEEMTQNEVSITCMVKGFYPPDIYVEWQMNGQPQENYKNTPPTMDTDGSYFLYSKLNVKKEKWQQGNTFTCSVLHEGLHNHHTEKSLSHSP
light: DVQMTQSPSYLAASPGESVSISCKASKSIGTFLAWYQEKPEKTNKLLIYSGSTLQSGTPSRFSGSGSGTDFTLTIRNLEPEDFAVYYCQQHDEYPFTFGSGTKLEIKRADAAPTVSIFPPSTEQLATGGASVVCLMNNFYPRDISVKWKIDGTERRDGVLDSVTDQDSKDSTYSMSSTLSLTKADYESHNLYTCEVVHKTSSSPVVKSFNRNEC
notes: Parental rat hybridoma, rat IgG2a; cross reactive with human and mouse MARCO
B2: the Kd in test [4] is less than 0.02 nM.

B3: PI-HX-3031 (antibody)
heavy: QVQLKESGPGLVQPSQTLSLTCTVSGFSLTSYHVSWVRQPPGKGLEWMGAIWTGGSIAYNSLLKSRLSISRDTSKSQVFLKMNSLQTEDTATYYCARDLSDYYSSYTSFDYWGQGVMVTVSTAETTAPSVYPLAPGTALKSNSMVTLGCLVKGYFPEPVTVTWNSGALSSGVHTFPAVLQSGLYTLTSSVTVPSSTWSSQAVTCNVAHPASSTKVDKKIVPRECNPCGCTGSEVSSVFIFPPKTKDVLTITLTPKVTCVVVDISQNDPEVRFSWFIDDVEVHTAQTHAPEKQSNSTLRSVSELPIVHRDWLNGKTFKCKVNSGAFPAPIEKSISKPEGTPRGPQVYTMAPPKEEMTQSQVSITCMVKGFYPPDIYTEWKMNGQPQENYKNTPPTMDTDGSYFLYSKLNVKKETWQQGNTFTCSVLHEGLHNHHTEKSLSHSP
light: DIQMTQSPASLSTSLGETVSIECLASEGISNDLAWYQQKSGKSPQLLIYAASRLQDGVPSRFSGSGSGTRYSLKISGMQPEDEADYFCQQSYKYPLTFGSGTKLEIKRADAAPTVSIFPPSTEQLATGGASVVCLMNNFYPRDISVKWKIDGTERRDGVLDSVTDQDSKDSTYSMSSTLSLTKADYESHNLYTCEVVHKTSSSPVVKSFNRNEC
notes: Parental rat hybridoma, rat IgG2a
The molecule B3 returned an EC50 in test [5] of 0.51 nM.
